Measurements taken from patent publication US20230227565A1, “Method for Treating CD127-Positive Cancers by Administering an Anti-CD127 Agent” (OSE IMMUNOTHERAPEUTICS, priority 2021, published 2023).

Columns and labels:
macrophages [1] = assay: Toxicity on macrophages (viability); conditions: FIG. 9; increasing doses
macrophages [2] = assay: Phagocytosis of macrophages by macrophages (autophagocytosis); conditions: FIG. 11A
Protocol: (§1) Phagocytosis assays. In vitro phagocytosis assays were performed by 1-hour coculture of 2,5×10^4 human primary M1 or THP1 macrophages labeled with CellTrackerGreen (ThermoFisher, Waltham, Mass., USA, 1/2000, 20 min at 37° C.) and 5×10^4 leukemic cells labeled with CPD (ThermoFisher, 1/2000 10 min at 37° C.) in serum-free RPMI. Phagocytosis was analyzed by a CytoFLEX flow cytometer (Beckman, Brea, Calif., USA) and analysis using FlowJo software (TreeStar, BD Life Sciences Franklin Lakes, N.J., USAs). The phagocytic index was calculated as follows: fold change of percentage of CPD+ cells in CTG+ macrophages compared to the one detected by treatment with istotype control multiplied by the fold change in geometric mean in APC fluorescence (CPD) in CTG+ macrophages compared to the one detected with isotype control.

normal T cells = assay: Phagocytosis of normal T cells by macrophages; type: cell-based, human; conditions: FIG. 10
Protocol: as §1

5F9: reference pro-phagocytic anti-CD47 antibody
overall number of live macrophages (macrophages [1]): drastically reduced
autophagocytosis of macrophages (macrophages [2]): have an autophagocytosis activity
phagocytosis of normal T cells by macrophages (normal T cells): A similar result is obtained
